Results taken from patent publication US20060286611A1, “Antibodies against biotinylated histones and related proteins and assays related thereto” (Board of Regents of University of Nebraska, priority 2005, published 2006).
Non-standard residues stand in square brackets, D forms with d. No end group written: not given here. *: point of attachment. Me2 = dimethyl-lysine (dimethyl-epsilon-NH2-L-lysine); Orn = NCCC[C@H](N)C(=O)O; For = O=C*

Tested on: histone H1
Test: Proteolytic digestion of histone H1
Assay type: biochemical
Settings: 20 mM
Protocol: Here the inventors determined whether biotin release is mediated by proteolytic digestion of histones. One milligram of histone H1 was dissolved in 100 μl of 20 mM sodium acetate [pH 4.5]. 0.4 microliters of histone solution was mixed with 7.1 μl of nuclear extract containing 20 μg of protein; samples were incubated at 37° C. for 20 min. The following controls were tested: histones incubated without nuclear extract, and histones incubated with 2.5 microliter trypsin [with or without 20 mM of the trypsin inhibitor, phenylmethylsulphonylfluoride (PMSF)]. Reactions were terminated by heating the samples with equal volume of loading buffer at 72° C. for 10 min. Proteins were resolved using 4-12% Bis-Tris gels (Invitrogen, Carlsbad, Calif.) as described (Stanley et al., 2001) and were visualized using coomassie blue.

Compound	degradation of histone H1 by trypsin in the presence of the inhibitor
O=S(=O)(F)Cc1ccccc1 [PMSF, phenylmethylsulphonylfluoride]	prevented

Same assay, conditions: 37° C. for 20 min

Compound	degradation of histone H1 by gel electrophoresis
trypsin	degraded completely

Molecular target: T1, biotinidase (Homo sapiens, UniProt P43251)
T1 construct: 60 μL of human plasma; from tissue; host or cells: human plasma
T1 sequence (P43251 22-523): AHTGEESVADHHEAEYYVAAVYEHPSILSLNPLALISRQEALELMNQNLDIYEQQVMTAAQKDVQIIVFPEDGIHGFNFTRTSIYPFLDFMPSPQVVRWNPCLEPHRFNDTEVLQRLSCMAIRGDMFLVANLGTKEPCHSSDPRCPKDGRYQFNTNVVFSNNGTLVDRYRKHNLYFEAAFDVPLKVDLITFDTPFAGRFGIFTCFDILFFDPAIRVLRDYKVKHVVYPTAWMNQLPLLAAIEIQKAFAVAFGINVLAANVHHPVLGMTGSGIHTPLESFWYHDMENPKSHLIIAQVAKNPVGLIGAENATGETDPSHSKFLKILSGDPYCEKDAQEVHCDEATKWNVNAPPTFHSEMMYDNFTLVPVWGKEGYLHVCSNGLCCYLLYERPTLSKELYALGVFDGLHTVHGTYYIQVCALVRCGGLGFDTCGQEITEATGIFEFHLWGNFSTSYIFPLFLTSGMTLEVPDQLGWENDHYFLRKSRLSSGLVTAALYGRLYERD
Test: Enzymatic biotinylation of synthetic histone H2A and H2A.X peptides by biotinidase
Assay type: biochemical
Settings: human plasma as source of biotinidase, 75 μmol/L biocytin, pH 8.0, 37° C., up to 45 minutes
From the text: In Examples described above, the inventors developed a procedure to identify amino acid residues in histones that are targets for biotinylation. […] Amino acid substitutions (e.g., lysine-to-alanine substitutions) in synthetic peptides are used to corroborate identification of biotinylation sites. In addition, amino acid modifications (e.g., acetylation of lysines) in peptides can be used to investigate the cross-talk between biotinylation of histones and other known modifications of histones.
Peptides from both the N- and C-terminal regions of histone H2A and H2A.X were included in the analysis of biotinylation sites. […] Reactions were quenched by adding an equal volume of Tricine gel loading buffer (Invitrogen, Carlsbad, Calif.).

Compound	enzymatic biotinylation by biotinidase, peptide-bound biotin probed with streptavidin peroxidase
NC(=O)NCCC[C@H](N)C(=O)O [citrulline]	good targets for biotinylation

Molecular target: T1, biotinidase
Test: Enzymatic biotinylation of synthetic histone H3 peptides by biotinidase
Assay type: biochemical
Settings: biotinidase and biocytin, 45 min

Compound	enzymatic biotinylation by biotinidase, peptide-bound biotin probed with streptavidin-peroxidase
NC(=O)NCCC[C@H](N)C(=O)O [citrulline]	relatively poor target for biotinylation
K18A18-25: histone H3 amino acids 18-25, K18 substituted with alanine (AQLATKAA) [Peptide K18A18-25]	barely detectable
K9,14A9-16: histone H3 amino acids 9 to 16, K9 and K14 substituted with alanine (ASTGGAAP)	no binding of biotin was detectable
TAOKSTGG (TA[Orn]KSTGG) [Peptide R8O6-13]	increased considerably
K18,23A18-25: histone H3 amino acids 18-25, K18 and K23 substituted with alanine (AQLATAAA)	No biotinylation was detected

Molecular target: T1, biotinidase
Test: Enzymatic biotinylation of synthetic histone H4 peptides by biotinidase
Assay type: biochemical
Settings: human plasma as source of biotinidase, biocytin, 37° C., 45 min
From the text: It has been proposed that the following catalytic sequence leads to biotinylation in histones (Hymes et al., 1995; Hyme and Wolf, 1999). First, biocytin is cleaved by biotinidase to form an intermediate, cysteine-bound biotin. Second, the biotinyl moiety from the cysteine residue is transferred to the ε-amino group of lysines in histones. In the present study, synthetic peptides were biotinylated enzymatically using human plasma (as source of biotinidase) and biocytin (as source of biotin) as described previously (Hymes et al., 1995). Peptide concentrations in stock solutions were adjusted to 50 mg/L; 20 μL of peptide solution was mixed with 1.88 mL of 50 mmol/L Tris (pH 8.0), 40 μL of 0.75 mmol/L biocytin and 60 μL of human plasma. Samples were incubated […] at 37° C. for 45 min and stored at −70° C. unless stated otherwise.
After enzymatic biotinylation, peptides were electrophoresed using 16% tricine polyacrylamide gels according to the manufacturer's instructions (Invitrogen, Carlsbad, Calif.). Peptides were electroblotted onto polyvinylidene fluoride membranes (Millipore, Bedford, Mass.), which were blocked with 50 mL of 30 g/L BSA. Peptide-bound biotin was probed with streptavidin peroxidase (Stanley et al., 2001).

Compound	enzymatic biotinylation by biotinidase, peptide-bound biotin probed with streptavidin peroxidase
19: histone H4 positions 6-15, glutamine in positions 8 and 12 (Ac-GGQGLGQGGA) [Peptide 19]	no enzymatic biotinylation was detectable
7: histone H4 positions 6-15, Dme-K in position 8 (Ac-GGK(Me2)GLGKGGA) [Peptide 7]	decreased substantially
5: histone H4 positions 6-15, Ac-K in position 8 (Ac-GGK(Ac)GLGKGGA) [Peptide 5]	barely detectable
9: histone H4 positions 6-15, For-K in position 12 (Ac-GGKGLGK(For)GGA) [Peptide 9]	decreased compared to the native peptide
16: histone H4 positions 6-15, glutamate in position 12 [Peptide 16]	not detectable
6: histone H4 positions 6-15, Ac-K in position 12 (Ac-GGKGLGK(Ac)GGA) [Peptide 6]	decreased biotinylation of the peptide
13: histone H4 positions 6-15, arginine in position 12 (Ac-GGKGLGRGGA) [Peptide 13]	decreased moderately
12: histone H4 positions 6-15, arginine in position 8 (Ac-GGRGLGKGGA) [Peptide 12]	decreased substantially
8: histone H4 positions 6-15, Dme-K in position 12 (Ac-GGKGLGK(Me2)GGA) [Peptide 8]	decreased substantially
GGKGLGKGGA (Ac-GGKGLGKGGA) [Peptide 1, amino acids 6 through 15 in histone H4, native control]	efficiently biotinylated
17: histone H4 positions 6-15, glutamine in position 8 (Ac-GGQGLGKGGA) [Peptide 17]	decreased compared to the native peptide
2: histone H4 positions 6-15, alanine in position 8 (Ac-GGAGLGKGGA) [Peptide 2]	decreased substantially
14: histone H4 positions 6-15, arginine in positions 8 and 12 (Ac-GGRGLGRGGA) [Peptide 14]	not detected
15: histone H4 positions 6-15, glutamate in position 8 [Peptide 15]	not detectable
18: histone H4 positions 6-15, glutamine in position 12 (Ac-GGKGLGQGGA) [Peptide 18]	decreased compared to the native peptide
4: histone H4 positions 6-15, alanine in positions 8 and 12 (Ac-GGAGLGAGGA) [Peptide 4]	did not undergo biotinylation
3: histone H4 positions 6-15, alanine in position 12 (Ac-GGKGLGAGGA) [Peptide 3]	decreased substantially
20: histone H4 positions 6-15, D-lysine in position 12 (Ac-GGKGLG[dK]GGA) [Peptide 20]	decreased only moderately

Same assay, conditions: incubated with plasma and biocytin for 0 to 60 min

Compound	time at which abundance of biotinylated peptide reached a plateau [min]
SGRGKGGKGLGKGGAKRHR [SEQ ID NO:7, N-terminal 19 amino acids of histone H4]	20 to 60
